The values below come from PMC4537280, “ApiAP2 Factors as Candidate Regulators of Stochastic Commitment to Merozoite Production in Theileria annulata”.

Substitutions are numbered along the chain they refer to.

Holding throughout (conditions): protein: recombinant; tags: N-terminal GST (pGEX5x-2); label: 5' biotin on strand 1; blunt
Series [1] concerns the target GST-TA11145D (TaAP2.me1 AP2 domain) (Theileria annulata (strain Ankara, …, UniProt Q4U8H9)). Description: EMSA; LightShift chemiluminescent EMSA kit components plus 1 ul 50% glycerol and 1 ul 1% NP40, about 0.7 ug GST fusion protein, 20 fmol biotinylated probe; competitor preincubation on ice; 4% polyacrylamide gel, 100 V, 4 C; pH and salt of binding not stated (oligo annealing in 20 mM Tris-HCl pH 7.6, 50 mM NaCl).

The target in series [2] is GST-TA13515D (TaAP2.g AP2 domain) (Theileria annulata (strain Ankara, …, UniProt Q4UEK3)). Described as above.
Series [3] has as its target T1, GST-TA16485D (TaAP2.me3 AP2 domain) (Theileria annulata (strain Ankara, …, UniProt Q4UIX2)).
T1 sequence: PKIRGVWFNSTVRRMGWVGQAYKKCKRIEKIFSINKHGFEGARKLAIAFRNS
The series is described as above.

Series [4] deals with T2, GST-TA12015D (TaAP2.me2 AP2 domain) (Theileria annulata (strain Ankara, …, UniProt Q4UDT1)).
T2 sequence: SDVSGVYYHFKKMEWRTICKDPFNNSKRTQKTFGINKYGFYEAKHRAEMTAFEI
Put plainly: EMSA; 0.6-1.6 ug protein; LightShift chemiluminescent EMSA kit components plus 1 ul 50% glycerol and 1 ul 1% NP40, about 0.7 ug GST fusion protein, 20 fmol biotinylated probe; competitor preincubation on ice; 4% polyacrylamide gel, 100 V, 4 C; pH and salt of binding not stated (oligo annealing in 20 mM Tris-HCl pH 7.6, 50 mM NaCl). (In EMSA bound probe runs differently from free probe, usually more slowly.)

B1: Bio(A)CACAC(A)-MUT (dsDNA)
DNA 1: GATATAGAATTATGCAGAATAT
DNA 2: ATATTCTGCATAATTCTATATC
As for B1, in series [1], the binding result is “no binding”.

B2: Bio-GTGTAC (dsDNA)
DNA 1: AATATTATAATAGTCGTAGCCATCAATGTGTACACATGGTAATATAGATTTTCGTTTATATT
DNA 2: AATATAAACGAAAATCTATATTACCATGTGTACACATTGATGGCTACGACTATTATAATATT
Consider B2, for which the binding result in series [2] was “binds”.

B3: Bio-GTGTAC-MUT (dsDNA)
DNA 1: B2 DNA 1 with G28A, G30A, C33A, C35A
DNA 2: B2 DNA 2 with G28T, G30T, C33T, C35T
Regarding B3, the binding result in series [2] was “no binding”.

B4: Bio-2x(A)CACAC(A) (dsDNA)
DNA 1: GATACACACTTATGCACACACA
DNA 2: TGTGTGTGCATAAGTGTGTATC
Turning to B4, the binding result in series [1] is “binds”.

B5: Bio-TCTATA / C-box probe (dsDNA)
DNA 1: ATTGTTAATTCCCCATCCAGATCTATAAAA
DNA 2: TTTTATAGATCTGGATGGGGAATTAACAAT
With B5, the binding result is on record as “binds” in series [3] and “no binding” in series [4].
